The results in this text go back to patent US6284871.

The target in assay [1] is purified human Factor IXa (human) (UniProt P00740).
Assay [2] has the same target. This is another data set of the same source.
Assay [3] concerns the target non-activated Factor IX (Homo sapiens (Human)) (UniProt P00740).
Assay [4] has as its target purified human Factor IXa (human) (UniProt P00740). The experiment in a line: equilibrium binding in solution (method of Friguet): 30 nM Factor IXa with varying peptide, non-bound Factor IXa measured on immobilized peptide.
The target of assay [5] is non-activated Factor IX (Homo sapiens (Human)) (UniProt P00740). The experiment in a line: equilibrium binding in solution (method of Friguet): 30 nM Factor IX with varying peptide, non-bound Factor IX measured on immobilized peptide.

Consider “complete Factor VIII light chain (residues 1649-2332) (from UniProt P00451)”, for which the Anticoagulant activity in the APTT test (prolongation of the clotting time in seconds) in assay [1] amounted to 8.6 s.
As a reminder, the Kd is the concentration at which binding is half-saturated. High values mean a looser complex, low ones a tighter complex. In the case of KNFVKPNETKTYFWK [compound … (SEQ ID NO: 3), synthetic peptide of Factor VIII A3-domain residues 1804-1818], the half-maximal inhibition in the APTT test in assay [2] and in assay [3] was 0.3 mM each time. The Kd is 200 µM in assay [4] and 230 µM in assay [5].
